Experimental data published in patent US20250270331A1 (MERUS N V, published 2025).
Where a chain is given by its changes, count along the chain named. One block for each binder: values may come before it.

Tests used:
[1] = target: T1, Human TGF-βRII-Fc (R&D; cat. no. 341-BR) (human, UniProt P37173 23-159); assay: ELISA; blocking of TGF-βRII-Fc binding to coated TGF-β1
T1 construct: Bought construct; not shown: Fc part of the bought fusion

L28A = target: T2, L28A; assay: shotgun mutagenesis alanine scan, mean fluorescence of the mutant clone in % of wildtype
T2 construct: L28 is named only on the sheet; also called human TGF-βRII with L28A (alanine scan clone)
T2 receptor: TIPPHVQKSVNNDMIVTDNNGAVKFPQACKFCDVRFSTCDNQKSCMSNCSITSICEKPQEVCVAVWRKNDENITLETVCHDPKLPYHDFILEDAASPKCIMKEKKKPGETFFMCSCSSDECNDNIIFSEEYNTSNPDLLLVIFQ

F25A = target: T3, F25A; assay: as above
T3 construct: also called human TGF-βRII with F25A (alanine scan clone)
T3 receptor: T2 receptor with F25A, A28L

T52A = target: T4, T52A; assay: as above
T4 construct: also called human TGF-βRII with T52A (alanine scan clone)
T4 receptor: T2 receptor with A28L, T52A

I54A = target: T5, I54A; assay: as above
T5 construct: also called human TGF-βRII with I54A (alanine scan clone)
T5 receptor: T2 receptor with A28L, I54A

E120A = target: T6, E120A; assay: as above
T6 construct: also called human TGF-βRII with E120A (alanine scan clone)
T6 receptor: T2 receptor with A28L, E120A

D119A = target: T7, D119A; assay: as above
T7 construct: also called human TGF-βRII with D119A (alanine scan clone)
T7 receptor: T2 receptor with A28L, D119A

[2] = target: T1, Human TGF-βRII-Fc (R&D; cat. no. 341-BR); assay: ligand blocking ELISA: TGF-βRII-Fc on coated TGF-β1, antibody titrated (OD450)

IC50 [1]: 0.155 µg/mL
B1: antibody comprising heavy chain variable regions having SEQ ID NO: 93 (antibody, V domains shown)
VH: EVQLVESGGDLVKPGGSLRLSCAASGFTFSNAWMSWVRQAPGKGLEWVGRVKTTVSGGTTDYAAAVKGRFTISRDDSKNTLYLQMNSLKTEDTAIYYCTIDLRDYWGQGTLVTVSS
VL: not shown
notes: From the second round of immunization; tested as bivalent IgG
Binding Reactivity (% WT) (L28A): 22.8 % WT
Binding Reactivity (% WT) (F25A): 2.28 % WT
Binding Reactivity (% WT) (T52A): 23.4 % WT
Binding Reactivity (% WT) (I54A): 24 % WT
Binding Reactivity (% WT) (E120A): 91.5 % WT
Binding Reactivity (% WT) (D119A): 2.8 % WT

IC50 (read off the curve) [2]: ~0.03 µg/mL
B2: antibody comprising heavy chain variable regions having SEQ ID NO: 94 (antibody, V domains shown)
VH: EVQLVESGGGLVQPGGSLRLSCAASGFTFSRYAMSWVRQAPGKGLEWVSSINTSGGNTFYADSVKGRFTISRDNSKNTLYLQMNSLRAEDTAIYYCAKGIAATGKNYFDPWGQGTLVTVSS
VL: not shown
notes: IgG expressed in 293T freestyle cells
